Data from patent US20210147563A1 (GENEUIN TECH, published 2021).

T1: DR4 expressed on the cell surface of cancer cells (HeLa, HCT-116) (human) (UniProt O00220)
T1 sequence (looked up): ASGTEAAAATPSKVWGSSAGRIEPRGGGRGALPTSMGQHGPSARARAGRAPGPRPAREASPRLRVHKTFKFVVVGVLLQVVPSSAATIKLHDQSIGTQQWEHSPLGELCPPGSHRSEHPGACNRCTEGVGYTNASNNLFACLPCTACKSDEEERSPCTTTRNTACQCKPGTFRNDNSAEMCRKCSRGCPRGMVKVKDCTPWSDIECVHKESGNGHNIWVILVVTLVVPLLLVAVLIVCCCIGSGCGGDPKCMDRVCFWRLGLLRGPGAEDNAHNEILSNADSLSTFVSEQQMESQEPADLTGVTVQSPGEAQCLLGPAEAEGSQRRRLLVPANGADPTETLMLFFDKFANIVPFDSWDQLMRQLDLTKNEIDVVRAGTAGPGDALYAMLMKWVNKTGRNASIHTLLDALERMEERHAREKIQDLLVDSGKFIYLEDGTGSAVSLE

T2: DR4 expressed on the cell surface of cancer cells (HeLa, HCT-116) (human, UniProt O00220 24-468)
T2 construct: whole, on cells; also called death receptor 4; DR4 trimer
T2 sequence (looked up): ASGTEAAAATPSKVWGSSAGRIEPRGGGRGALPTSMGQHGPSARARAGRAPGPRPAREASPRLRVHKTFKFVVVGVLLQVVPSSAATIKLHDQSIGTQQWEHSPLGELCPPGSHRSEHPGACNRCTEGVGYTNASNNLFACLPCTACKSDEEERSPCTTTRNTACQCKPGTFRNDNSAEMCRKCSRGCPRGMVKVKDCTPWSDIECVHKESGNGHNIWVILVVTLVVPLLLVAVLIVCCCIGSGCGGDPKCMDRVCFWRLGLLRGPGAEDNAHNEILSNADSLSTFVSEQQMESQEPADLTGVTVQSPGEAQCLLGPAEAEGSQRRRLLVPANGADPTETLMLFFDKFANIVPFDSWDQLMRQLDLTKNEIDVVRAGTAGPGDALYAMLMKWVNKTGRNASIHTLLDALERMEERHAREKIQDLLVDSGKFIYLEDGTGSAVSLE


Tests used:
[1] = molecular target: T1, DR4 expressed on the cell surface of cancer cells (HeLa, HCT-116) (human); assay: cell-based or functional assay
[2] = molecular target: T2, DR4 expressed on the cell surface of …; assay: inferred from apoptosis (MTT) assay on DR4-expressing HeLa and HCT-116 cells against DR4-negative HEK293 cells; no direct binding assay
Experimental: To this end, apoptosis-inducing effects of secretory humanized DR4 scFv antibody recombinant protein were analyzed using HeLa cells, a cervical cancer cell line expressing DR4 on the cell surface, and HCT-116 cells, a colon cancer cell line. […] Each of these three cells was inoculated in a culture dish and cultured overnight, and then the secretory humanized DR4 scFv antibody recombinant protein was added to the culture medium, and the degree of death of the cells during culturing was determined by MTT method (Cyto X™ Cell viability assay kit, LPS solution, Korea).

binding result [2] | Binder | cytotoxicity of CAR expressing lymphocytes on HeLa cells against HEK293 cells (CellTox Green fluorescence, effector:target 10:1, 3 days) [1] [times]
 | humanized DR4 scFv chimeric antigen receptor (CAR) (protein, part only; not given: hinge, transmembrane and signaling domains, not shown: a dimerising Fc or GST; small tags and cut ends) chain, part: EVQLVESGGGLVQPGGSLRLSCSASGFTFSSYSMQWVRQAPGKGLEYVAGIRSDGRYTNYGAAVKGRATISRDNSKNTVYLQMNSLRAEDTAVYYCAKGAYGYCGSTCAPYLGQIDAWGQGTLVTVSSGSTSGSGKPGSGEGSTKGSYELTQPPSVSVSPGQTVRITCSGGRYTYGWFQQKPGQAPVTVIYGNDKRPSNIPSRFSGSTSGSTVTLTISGVQAEDEADYYCGGADFSAGLFGGGTKLTVL | 2 to 3
binds | secretory humanized DR4 scFv antibody recombinant protein (scFv, Secreted from HEK293 cells transfected with pCMVFL-srkDR4 and purified through the His tag; no cleavage site is stated; also called secretory (soluble form) humanized DR4 scFv antibody fragment recombinant protein; humanized anti-DR4 scFv; not shown: Flag tag; IgG3 hinge; isoleucine zipper (ILZ) peptide; His6 tag) scFv: EVQLVESGGGLVQPGGSLRLSCSASGFTFSSYSMQWVRQAPGKGLEYVAGIRSDGRYTNYGAAVKGRATISRDNSKNTVYLQMNSLRAEDTAVYYCAKGAYGYCGSTCAPYLGQIDAWGQGTLVTVSSGSTSGSGKPGSGEGSTKGSYELTQPPSVSVSPGQTVRITCSGGRYTYGWFQQKPGQAPVTVIYGNDKRPSNIPSRFSGSTSGSTVTLTISGVQAEDEADYYCGGADFSAGLFGGGTKLTVL | 
